Source: paper PMC2597217

Tests used:
FoxO1 DBD A207C = FoxO1 DBD A207C (human, UniProt Q12778 151-266, A207C); experiment: crystal structure
FoxO1 DBD S184C = FoxO1 DBD S184C (human, UniProt Q12778 151-266, S184C); experiment: crystal structure
FoxO1 DBD S249E = FoxO1 DBD S249E (human, UniProt Q12778 151-266, S249E); experiment: EMSA
FoxO1 DBD S249E, sequence (Q12778 151-266 S249E): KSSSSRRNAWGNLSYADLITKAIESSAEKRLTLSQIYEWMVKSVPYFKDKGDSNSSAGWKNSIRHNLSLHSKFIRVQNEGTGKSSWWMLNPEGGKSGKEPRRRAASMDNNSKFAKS

FoxO1 DBD S184C, sequence (Q12778 151-266 S184C): as the sequence (Q12778 151-266 S249E) above, with S34C, E99S counted along it
FoxO1 DBD A207C, sequence (Q12778 151-266 A207C): as the sequence (Q12778 151-266 S249E) above, with A57C, E99S counted along it

Binder	binding result (FoxO1 DBD A207C)	binding result (FoxO1 DBD S184C)	binding result (FoxO1 DBD S249E)
IRE (dsDNA) DNA 1: TGGTTTGTTTTGCTTG DNA 2: CAAGCAAAACAAACCA	binds	binds	binds
DBE2 (dsDNA) DNA 1: TCTTGTTTACATTTTG DNA 2: CAAAATGTAAACAAGA	–	–	binds
